To fix the notation:
B1: Recombinant human cold-inducible RNA-binding protein (rhCIRP) (natural protein, UniProt Q14011-1 1-172, looked up)
chain: MASDEGKLFVGGLSFDTNEQSLEQVFSKYGQISEVVVVKDRETQRSRGFGFVTFENIDDAKDAMMAMNGKSVDGRQIRVDQAGKSSDNRSRGYRGGSAGGRGFFRGGRGRGRGFSRGGGDRGYGGNRFESRSGGYGGSRDYYSSRSQSGGYSDRSSGGSYRDSYDSYATHNE

The target of one assay is TLR4 (Homo sapiens) (UniProt O00206). To be noted: cited from earlier work.
The target in the next assay is TLR4/MD2 (Homo sapiens) (UniProt O00206). Description: SPR. The following applies: cited from earlier work.
The next assay addresses MD2 (Homo sapiens) (UniProt Q9Y6Y9). To be noted: cited from earlier work.
Assay [1] concerns the target Recombinant human TLR2 (rhTLR2), Glu21-Leu590 (human, UniProt O60603 21-590). The assay is described as follows: SPR.
For assay [2], the target named is Recombinant human TLR4 (rhTLR4), Glu24-Lys631 (human, UniProt O00206 24-631). Description: SPR.
The target in assay [3] is Recombinant human TLR4/MD2 complex (rhTLR4/MD2) (human, UniProt O00206 24-631; Q9Y6Y9 17-160). The assay is described as follows: SPR.
For assay [4], the target named is Recombinant human RAGE (rhRAGE), Ala23-Ala344 (human, UniProt Q15109 23-344). Description: SPR.
The target in assay [5] is B1. The assay is described as follows: SPR.

Chain of Recombinant human TLR4 (rhTLR4), Glu24-Lys631 (O00206 24-631): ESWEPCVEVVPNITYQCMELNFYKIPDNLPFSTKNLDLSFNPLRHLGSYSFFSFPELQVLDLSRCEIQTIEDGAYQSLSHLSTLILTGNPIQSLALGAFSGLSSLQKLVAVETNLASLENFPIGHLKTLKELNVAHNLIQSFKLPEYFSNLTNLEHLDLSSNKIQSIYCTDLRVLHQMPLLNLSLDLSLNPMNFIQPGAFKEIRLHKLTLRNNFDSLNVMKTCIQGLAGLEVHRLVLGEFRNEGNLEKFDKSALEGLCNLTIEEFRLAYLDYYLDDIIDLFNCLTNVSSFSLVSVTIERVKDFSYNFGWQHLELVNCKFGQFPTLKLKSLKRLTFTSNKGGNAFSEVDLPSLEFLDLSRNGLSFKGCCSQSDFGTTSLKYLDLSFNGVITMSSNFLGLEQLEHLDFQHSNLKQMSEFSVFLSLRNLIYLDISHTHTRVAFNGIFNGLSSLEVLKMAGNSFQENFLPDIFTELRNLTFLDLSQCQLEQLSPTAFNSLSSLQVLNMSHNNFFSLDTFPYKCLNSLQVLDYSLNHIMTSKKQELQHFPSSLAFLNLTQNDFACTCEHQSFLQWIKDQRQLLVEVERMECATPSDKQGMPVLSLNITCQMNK
Chain of Recombinant human TLR2 (rhTLR2), Glu21-Leu590 (O60603 21-590): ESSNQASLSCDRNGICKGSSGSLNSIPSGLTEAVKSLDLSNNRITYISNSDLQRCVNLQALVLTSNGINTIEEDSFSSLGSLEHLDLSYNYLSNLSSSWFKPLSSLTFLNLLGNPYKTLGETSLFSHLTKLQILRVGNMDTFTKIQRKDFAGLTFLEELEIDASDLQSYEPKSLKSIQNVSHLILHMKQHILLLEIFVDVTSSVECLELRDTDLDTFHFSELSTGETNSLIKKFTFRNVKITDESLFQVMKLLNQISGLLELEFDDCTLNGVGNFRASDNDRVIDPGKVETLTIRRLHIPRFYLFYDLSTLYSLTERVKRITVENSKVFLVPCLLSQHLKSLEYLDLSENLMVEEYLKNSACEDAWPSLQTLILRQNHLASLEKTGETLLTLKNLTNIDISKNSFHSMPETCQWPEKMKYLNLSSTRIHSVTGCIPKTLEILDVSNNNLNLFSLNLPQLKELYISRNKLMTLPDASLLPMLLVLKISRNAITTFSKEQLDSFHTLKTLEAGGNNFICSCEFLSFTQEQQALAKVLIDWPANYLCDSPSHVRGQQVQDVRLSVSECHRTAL
Chain of TLR4 (Homo sapiens) (O00206 24-631): as the sequence (O00206 24-631) above
Chain of Recombinant human TLR4/MD2 complex (rhTLR4/MD2) (O00206 24-631, one chain of several): as the sequence (O00206 24-631) above
Chain of TLR4/MD2 (Homo sapiens) (O00206 24-839): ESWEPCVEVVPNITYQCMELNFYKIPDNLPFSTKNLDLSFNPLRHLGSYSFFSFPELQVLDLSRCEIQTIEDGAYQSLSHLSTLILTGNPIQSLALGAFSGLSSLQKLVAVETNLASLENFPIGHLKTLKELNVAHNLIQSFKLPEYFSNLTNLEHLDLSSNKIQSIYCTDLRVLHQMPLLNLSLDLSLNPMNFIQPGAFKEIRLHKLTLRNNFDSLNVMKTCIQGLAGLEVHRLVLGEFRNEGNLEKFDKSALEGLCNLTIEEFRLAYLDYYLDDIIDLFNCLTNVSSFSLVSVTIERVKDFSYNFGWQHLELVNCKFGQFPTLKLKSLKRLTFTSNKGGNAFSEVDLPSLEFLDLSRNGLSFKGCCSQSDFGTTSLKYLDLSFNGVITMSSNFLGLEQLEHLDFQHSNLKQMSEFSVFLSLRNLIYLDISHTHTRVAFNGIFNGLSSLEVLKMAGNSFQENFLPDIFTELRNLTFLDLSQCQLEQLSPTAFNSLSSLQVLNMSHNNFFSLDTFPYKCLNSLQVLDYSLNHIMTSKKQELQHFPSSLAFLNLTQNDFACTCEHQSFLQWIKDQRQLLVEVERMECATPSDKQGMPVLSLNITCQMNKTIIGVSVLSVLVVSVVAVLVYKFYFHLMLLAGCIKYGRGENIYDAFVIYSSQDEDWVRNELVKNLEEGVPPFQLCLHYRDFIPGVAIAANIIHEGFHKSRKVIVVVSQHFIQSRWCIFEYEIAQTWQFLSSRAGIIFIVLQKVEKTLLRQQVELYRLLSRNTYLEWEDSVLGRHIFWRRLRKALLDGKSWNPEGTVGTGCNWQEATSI
Chain of Recombinant human RAGE (rhRAGE), Ala23-Ala344 (Q15109 23-344): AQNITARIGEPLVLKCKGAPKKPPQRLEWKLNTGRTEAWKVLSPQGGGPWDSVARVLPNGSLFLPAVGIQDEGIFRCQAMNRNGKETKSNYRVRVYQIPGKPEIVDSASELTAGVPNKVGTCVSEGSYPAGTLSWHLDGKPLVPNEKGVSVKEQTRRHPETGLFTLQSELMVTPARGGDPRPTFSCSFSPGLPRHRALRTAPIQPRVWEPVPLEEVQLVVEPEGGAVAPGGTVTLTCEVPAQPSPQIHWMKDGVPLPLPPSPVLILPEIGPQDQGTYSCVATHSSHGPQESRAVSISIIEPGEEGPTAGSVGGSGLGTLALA

As to MD2 (from UniProt Q9Y6Y9), the dissociation constant (Kd) in the assay with TLR4 (Homo sapiens) is 62.9 nM.

With HMGB1 (from UniProt P09429), the dissociation constant Kd with TLR4/MD2 (Homo sapiens) was 1500 nM; with MD2 (Homo sapiens), 8 nM.

For the molecule B1, the Kd was 258 nM in assay [1], 617 nM in assay [2], 239 nM in assay [3] and 33.1 nM in assay [4].

B2: Recombinant human MD2 (rhMD2), Glu17-Asn160 (natural protein, UniProt Q9Y6Y9 17-160, looked up)
chain: EAQKQYWVCNSSDASISYTYCDKMQYPISINVNPCIELKRSKGLLHIFYIPRRDLKQLYFNLYITVNTMNLPKRKEVICRGSDDDYSFCRALKGETVNTTISFSFKGIKFSKGKYKCVVEAISGSPEEMLFCLEFVILHQPNSN
Consider B2, for which the Kd in assay [2] amounted to 53.7 nM; in assay [5], 302 nM.

The values are drawn from paper PMC3826915 (Nature medicine, 2013).
